Measured values from patent US20070249061A1 (PROTEOGEN, published 2007).
No end group written: not given here.

B1: HGLVHK-NH2 (peptide)
peptide: HGLVHK-NH2
notes: also called HGLVHK peptide; peptide number 7
B2: HGDVHK-NH2 (peptide)
peptide: HGDVHK-NH2
notes: also called HGDVHK peptide; peptide number 10
B3: HSDVHK-NH2 (peptide)
peptide: HSDVHK-NH2
notes: also called HSDVHK peptide; peptide number 11
B4: HGDLHK-NH2 (peptide)
peptide: HGDLHK-NH2
notes: also called HGDLHK peptide; peptide number 4
B5: HHLLHK-NH2 (peptide)
peptide: HHLLHK-NH2
notes: also called HHLLHK peptide; peptide number 3

These binders were tested against T1, integrin αvβ3 (UniProt P06756 31-1048; P05106 27-788) (assay: competitive inhibition of integrin αvβ3-vitronectin interaction on protein chip).
T1 construct: Heterodimer immobilized on ProteoChip
T1 sequence (P06756 31-1048, chain 1 of 2): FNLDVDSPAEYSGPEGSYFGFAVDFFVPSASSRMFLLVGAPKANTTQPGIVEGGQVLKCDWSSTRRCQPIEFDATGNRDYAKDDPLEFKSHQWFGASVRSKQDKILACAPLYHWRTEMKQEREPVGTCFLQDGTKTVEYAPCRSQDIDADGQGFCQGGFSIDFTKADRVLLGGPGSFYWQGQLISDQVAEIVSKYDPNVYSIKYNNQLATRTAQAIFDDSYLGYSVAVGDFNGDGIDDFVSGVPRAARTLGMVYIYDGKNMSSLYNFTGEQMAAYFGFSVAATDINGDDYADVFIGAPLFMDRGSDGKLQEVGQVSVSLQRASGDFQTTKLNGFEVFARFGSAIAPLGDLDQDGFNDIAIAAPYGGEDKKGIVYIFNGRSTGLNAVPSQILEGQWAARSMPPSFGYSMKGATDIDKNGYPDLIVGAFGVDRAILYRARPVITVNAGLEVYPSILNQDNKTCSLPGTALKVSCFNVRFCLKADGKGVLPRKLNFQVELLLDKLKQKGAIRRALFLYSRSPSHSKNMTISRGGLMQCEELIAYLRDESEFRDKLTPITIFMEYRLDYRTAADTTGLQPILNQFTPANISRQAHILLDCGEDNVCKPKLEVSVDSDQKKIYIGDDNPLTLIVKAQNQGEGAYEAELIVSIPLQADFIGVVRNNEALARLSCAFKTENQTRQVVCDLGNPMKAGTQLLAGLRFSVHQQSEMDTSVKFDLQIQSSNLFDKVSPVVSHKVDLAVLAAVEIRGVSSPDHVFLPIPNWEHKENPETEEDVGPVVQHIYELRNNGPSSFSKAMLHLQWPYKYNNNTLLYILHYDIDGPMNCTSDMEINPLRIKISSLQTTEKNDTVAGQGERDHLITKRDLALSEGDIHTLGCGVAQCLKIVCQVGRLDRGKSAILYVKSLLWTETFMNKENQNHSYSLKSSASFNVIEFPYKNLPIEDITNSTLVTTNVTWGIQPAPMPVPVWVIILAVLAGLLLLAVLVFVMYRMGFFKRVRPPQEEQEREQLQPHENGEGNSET
T1 sequence (P05106 27-788, chain 2 of 2): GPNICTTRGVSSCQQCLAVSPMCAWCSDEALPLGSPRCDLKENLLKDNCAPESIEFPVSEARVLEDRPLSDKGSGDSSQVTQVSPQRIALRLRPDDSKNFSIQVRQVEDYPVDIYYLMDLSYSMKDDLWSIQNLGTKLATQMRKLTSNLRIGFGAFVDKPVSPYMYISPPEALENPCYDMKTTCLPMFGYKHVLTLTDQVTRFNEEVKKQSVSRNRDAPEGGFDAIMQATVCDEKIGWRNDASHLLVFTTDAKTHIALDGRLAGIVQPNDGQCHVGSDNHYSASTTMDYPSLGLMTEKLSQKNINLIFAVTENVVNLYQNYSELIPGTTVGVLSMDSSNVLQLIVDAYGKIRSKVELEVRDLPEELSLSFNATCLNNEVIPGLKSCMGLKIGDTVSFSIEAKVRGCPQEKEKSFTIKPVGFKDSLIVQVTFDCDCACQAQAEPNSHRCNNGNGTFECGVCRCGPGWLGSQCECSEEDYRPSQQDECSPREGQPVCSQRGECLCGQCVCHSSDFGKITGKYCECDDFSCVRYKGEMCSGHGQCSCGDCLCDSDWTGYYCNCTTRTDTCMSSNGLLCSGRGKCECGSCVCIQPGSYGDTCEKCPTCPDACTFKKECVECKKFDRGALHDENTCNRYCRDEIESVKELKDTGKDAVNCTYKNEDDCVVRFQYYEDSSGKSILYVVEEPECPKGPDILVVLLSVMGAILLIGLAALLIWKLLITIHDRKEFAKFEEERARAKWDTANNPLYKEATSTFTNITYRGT
Description: After reaction, those were washed for about 10 minutes with 0.5% PBST containing 3% BSA. Competitive inhibitory abilities of antagonists were measured by analyzing the degree of ligand binding as relative fluorescence intensity with a fluorescence scanner.
Work on B1 yielded an IC50 of 0.00243 ng/mL.
In the case of HSLVHK-NH2 (also called peptide number 8) [HSLVHK-NH2], the IC50 is reported as 0.046 ng/mL.
For B2, the IC50 was 0.0447 ng/mL.
With B3 the IC50 was 0.00174 ng/mL.
Work on HHLVHK-NH2 (also called peptide number 9) [HHLVHK-NH2] yielded an IC50 of 0.313 ng/mL.
With B4 the IC50 was 0.0307 ng/mL.
Binder B5 has an IC50 of 0.0034 ng/mL.
